# Laboratory results as given in patent publication EP4634231A1 (dated 2025).
# Key:
# [1] = biological target: T1, MUC-16 (CA125) expressed on SW1990 and OVCAR3 cancer cells (human, UniProt Q8WXI7 1-14507); assay: flow cytometry on MUC16 expressing cancer cells
# T1 construct: whole, on cells
# [2] = biological target: T1, MUC-16 (CA125) expressed on SW1990 and …; assay: flow cytometry saturation binding (MFI against concentration) on MUC-16 expressing SW1990 and OVCAR3 cells
EC50 [1] [nM],EC50 [2] [nM],Kd [2] [nM],Binder
10,–,–,"89Zr-DFO-M16Ab, M16Ab conjugated with p-SCN-Bn-DFO and radiolabeled with 89Zr (antibody, V domains shown, p-SCN-Bn-DFO chelator loaded with 89Zr; sites not stated, also called 89Zr-DFO-M16Ab1; 89Zr-M16Ab1) VH: QVQLVESGGGVVQPGGSLRLSCAASGFTFSTYGMHWVRQAPGKGLEWVAVISYDGSNKYYADSVKGRFTISRDNTNNSLYLQMSGLRAEDSAVYYCAKDVYGDFAVDSWGQGTLVTVSS VL: not shown"
–,10.3,12.7,"DFO-M16Ab1, M16Ab1 IgG1 conjugated with p-SCN-Bn-DFO (antibody, V domains shown, p-SCN-Bn-DFO (deferoxamine) conjugated, average of two DFO molecules per antibody; sites not stated, also called DFO-MUC16 Ab 1; DFO-MUC16 AB1) VH: QVQLVESGGGVVQPGGSLRLSCAASGFTFSTYGMHWVRQAPGKGLEWVAVISYDGSNKYYADSVKGRFTISRDNTNNSLYLQMSGLRAEDSAVYYCAKDVYGDFAVDSWGQGTLVTVSS VL: not shown"
–,9.1,10.9,"M16Ab1, fully human anti-MUC16 monoclonal antibody, full-length IgG1 (antibody, V domains shown, also called MUC16 Ab1; MUC-16 Ab1) VH: QVQLVESGGGVVQPGGSLRLSCAASGFTFSTYGMHWVRQAPGKGLEWVAVISYDGSNKYYADSVKGRFTISRDNTNNSLYLQMSGLRAEDSAVYYCAKDVYGDFAVDSWGQGTLVTVSS VL: not shown"
